{
  "source": "paper PMC11601465",
  "key": {"[1]": {"molecular_target": "Nyl50", "experiment": "SEC"}, "[2]": {"molecular_target": "Nyl50", "experiment": "AUC"}, "[3]": {"molecular_target": "Nyl50", "experiment": "AUC", "remark": "listed apart in the source"}},
  "data": [
    {"substance": "Nyl50 (enzyme)", "values": [
      {"measurement": "stoichiometry N", "setting": "[1]", "result": 2},
      {"measurement": "stoichiometry N", "setting": "[2]", "result": 4},
      {"measurement": "stoichiometry N", "setting": "[3]", "result": 2}
    ]}
  ]
}
